Data: the supplement of paper PMC10567573

B1: CROP (parent)
chain: VFGRGDNISDVSKFLEDDKWMEE
B2: C8orf76 (parent)
chain: KLAEAYLNLGPALSAALASSQKQH

Variants of: B1
Test: protein stability index of a GFP-peptide fusion (GPS, HEK-293T) (PSI 1-6); higher = more stable
Conditions: c terminus: native
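Also: lentivirally expressed fusions sorted by FACS into six bins by GFP to DsRed ratio, PSI derived from sequencing read proportions per bin multiplied by bin number.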

Protein stability index, by site and new letter:
K13: G 2.02; T 1.72
E22: K 4.73; Q 3.96; M 4.28; T 4.94; I 3.81; Y 3.73; A 4.23
D17: F 3.45; K 2.83; L 1.29
V11: Y 1.38; M 2.95; A 2.4; S 2.71; H 2.43
S12: N 2; F 2.33
D10: H 3.06; R 1.55
F14: H 4.16; T 4.42
W20: C 4.08; V 3.81; S 4.28
L15: S 2.28; N 3.32; M 2.06; F 1.06
G3: T 2.07; Q 2.11; K 1.44; S 1.82; H 1.88
G5: N 3.26; Q 2.3; F 1.88
E23: D 5; Q 4.37
M21: W 1.97; C 3.53; I 1.27
K19: V 2.27; R 2.5; T 1.92; H 1.91
F2: K 2.16
V1: G 3.63; W 3.69; N 2.25; L 2.48; E 2.97; Q 3
S9: G 2.06; K 1.62; H 2.25
D18: G 2.06; P 3.66; W 2.04
I8: Q 2.07; T 2.62
R4: T 2.3; E 2.42; I 1.95; L 1.98; V 1.9
N7: L 1.42; S 1.41; P 1.35; D 2.89
E16: G 2.4; A 2.44; H 1.79
D6: H 1.85; V 2.96; S 2.15; E 2.42

Variants of: B2
Test: as above
Conditions: c terminus: a fixed tail appended

Protein stability index of substitutions, site by site:
L7: Q 1.54; Y 2.07; D 2.23; M 1.53; I 2.59; T 1.7; C 2.36; V 3.1; F 2.53; N 1.94; P 2.23; S 2.21; A 1.6; H 1.94; K 1.62; E 2.65; G 1.67
A12: T 1.26; M 2.5; E 1.96; P 2.2; I 2.25; Y 2.82; D 2.61; R 2.29; L 2.59; V 3.4; W 1.59; Q 1.73; S 2.35; H 2.14; C 1.82; F 2.73; K 2.32; N 1.68; G 1.6
A5: N 2.07; Y 4.03; H 2.04; T 2.93; C 4.48; E 2.96; V 1.89; W 1.58; Q 2.33; P 2.76; K 1.82; M 3.68; R 2.27; L 4.98; F 3.28; S 1.24; G 2.03; D 2.44
K1: L 5.14; Q 2.44; Y 2.63; D 2.06; S 2.08; W 3.61; I 2.14; A 2.64; P 1.19; C 4.61; E 2.64; T 2.78; N 3.67; V 2.25; H 1.97
L2: P 3.15; F 1.11; I 2.6; V 1.33; N 2.61; W 2.89; Q 2.57; C 2.03; K 3.38; G 2.36; S 3.07; A 2.15; M 1.68; T 2.8; E 3.62; R 2.38; D 3.38; Y 1.97; H 2.66
G10: F 2.51; E 1.87; T 2.12; C 2.66; V 2.73; Q 2.21; S 2.51; H 1.96; Y 1.86; A 1.92; M 2.77; R 1.94; I 3.16; W 1.61; D 1.88; K 2.26; P 2.58; N 2.08
S14: P 1.81; Q 2.93; V 4.08; M 3.24; E 1.23; R 2.06; H 2.18; K 1.3; Y 2.35; T 3.75; A 1.47; G 2.12; N 2.86; D 2.06; F 4.03
L9: K 3.11; N 2.89; V 1.91; R 2.61; E 2.36; P 2.75; T 2.62; Q 3.08; C 1.36; G 2.68; M 2.36; I 3.05; A 4.3; D 3.5; S 1.96; H 2.26; W 3.02; Y 2.06; F 2.56
E4: D 2.2; N 2.35; V 1.39; I 2.97; G 2.43; K 1.43; C 1.57; F 1.94; P 2.2; S 1.31; R 1.6; H 3.03; W 3.01; M 4.83; Y 2.55; A 1.83; Q 2.63; T 3.2
A3: G 2.22; Q 1.72; L 3.56; M 1.43; W 3.22; Y 3.71; I 2.07; K 1.93; V 3.08; F 3.79; H 2.29; N 2.12; R 2.24; C 3.15; P 2.48; D 3.08; S 1.82; T 1.52; E 1.85
L13: H 2.23; S 2.54; W 2.06; K 2.36; Y 2.14; M 1.8; A 1.99; C 2.77; Q 2.76; N 2.31; T 2.65; V 1.48; R 2.24; F 2.03; D 3.15; G 2.65; P 2.82; I 3.23; E 3.29
N8: R 3.8; H 2.16; G 2.5; A 4.23; M 2.15; F 2.74; K 1.33; P 2.02; L 2.33; S 3.78; W 3.78; C 3.63; V 3.33; D 2.07; E 2.42; T 3.12; Y 2.59; Q 1.73
P11: M 2.9; S 3.4; Y 1.26; C 2.49; F 2.45; D 2.26; E 2.52; K 1.94; Q 2.28; A 2.16; H 1.84; I 2.53; R 3.7
Y6: K 3.18; T 1.85; N 3.58; A 1.54; H 2.3; V 3.81; D 3.94; C 2.32; W 2.08; S 3.04; I 2.39; R 2.98; Q 2.73; E 3.65; P 3.59
A15: K 2.27; C 2.3; F 2.78; D 2.32; P 2.36; M 2.94; I 3.79; L 3.15; E 2.26; N 1.81; R 2.34; G 2.03; H 2.63; Q 2.98
